Assay: Single-channel electrical recordings of protein pores in planar lipid bilayers
Assay type: biochemical
Conditions: +40 mV
[1] = 1 M KCl, 10 mM potassium phosphate, pH 7.4

B1: WT-FhuA: wild-type E. coli ferric hydroxamate uptake component A, 714-residue β-barrel outer membrane protein (protein, UniProt P06971 34-747, looked up)
Ferrichrome outer membrane …: AVEPKEDTITVTAAPAPQESAWGPAATIAARQSATGTKTDTPIQKVPQSISVVTAEEMALHQPKSVKEALSYTPGVSVGTRGASNTYDHLIIRGFAAEGQSQNNYLNGLKLQGNFYNDAVIDPYMLERAEIMRGPVSVLYGKSSPGGLLNMVSKRPTTEPLKEVQFKAGTDSLFQTGFDFSDSLDDDGVYSYRLTGLARSANAQQKGSEEQRYAIAPAFTWRPDDKTNFTFLSYFQNEPETGYYGWLPKEGTVEPLPNGKRLPTDFNEGAKNNTYSRNEKMVGYSFDHEFNDTFTVRQNLRFAENKTSQNSVYGYGVCSDPANAYSKQCAALAPADKGHYLARKYVVDDEKLQNFSVDTQLQSKFATGDIDHTLLTGVDFMRMRNDINAWFGYDDSVPLLNLYNPVNTDFDFNAKDPANSGPYRILNKQKQTGVYVQDQAQWDKVLVTLGGRYDWADQESLNRVAGTTDKRDDKQFTWRGGVNYLFDNGVTPYFSYSESFEPSSQVGKDGNIFAPSKGKQYEVGVKYVPEDRPIVVTGAVYNLTKTNNLMADPEGSFFSVEGGEIRARGVEIEAKAALSASVNVVGSYTYTDAEYTTDTTYKGNTPAQVPKHMASLWADYTFFDGPLSGLTLGTGGRYTGSSYGDPANSFKVGSYTVVDALVRYDLARVGMAGSNVALHVNNLFDREYVASCFNTYGCFWGAERQVVATATFRF
In the case of B1, the “all-points histogram current amplitude peak” value is reported as ~12.5 pA, the Conductance [1] is reported as 0.3 ± 0.2 nS and the single-channel conductance [1] is reported as 0.3±0.2 nS.

From patent US8916684B2, “Bioengineered protein pores” (Syracuse University, priority 2010, dated 2014)
